In US20190247480A1:

B1: Rho1L2 (…), modified RhoC peptide with Leu at position 2 (peptide)
peptide: RLGLQVRKNK
B2: Rho1 (…), native RhoC-derived peptide (peptide)
peptide: RAGLQVRKNK

Molecular target: HLA-A3 (human)
Assay: assembly assay, stabilisation of HLA-A3 in T2-A3 lysates, W6/32 immunoprecipitation

| Binder | C50 value (peptide concentration required for half maximal recovery of class I MHC molecules) |
| --- | --- |
| B1 | 4 |
| B2 | > 40 |
